Holding throughout (assay): Kinase selectivity panel
What all share (type): biochemical

One data set has as its target T1, ERK8 (Homo sapiens, UniProt Q8TD08).
T1 sequence (Q8TD08 1-544): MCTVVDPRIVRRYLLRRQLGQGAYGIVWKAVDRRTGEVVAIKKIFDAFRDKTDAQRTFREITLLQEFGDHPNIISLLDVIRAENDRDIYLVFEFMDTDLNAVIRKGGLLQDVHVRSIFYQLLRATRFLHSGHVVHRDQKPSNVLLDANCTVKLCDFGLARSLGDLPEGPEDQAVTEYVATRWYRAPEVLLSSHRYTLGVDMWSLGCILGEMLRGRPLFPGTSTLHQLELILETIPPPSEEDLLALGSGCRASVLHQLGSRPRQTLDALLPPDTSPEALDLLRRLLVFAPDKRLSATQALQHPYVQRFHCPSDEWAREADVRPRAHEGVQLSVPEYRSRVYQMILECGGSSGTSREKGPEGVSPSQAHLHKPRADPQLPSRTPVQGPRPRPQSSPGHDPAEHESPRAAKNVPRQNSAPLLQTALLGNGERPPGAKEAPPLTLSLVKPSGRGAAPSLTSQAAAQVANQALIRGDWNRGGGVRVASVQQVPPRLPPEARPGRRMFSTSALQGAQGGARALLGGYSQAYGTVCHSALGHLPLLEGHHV
As to conditions: read-out: residual activity (%) ERK8. The essentials: (§1)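 At 30° C, activity of this kinase was assayed within a broader panel of 52 enzymes.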

Another data set addresses JNK3 (Homo sapiens, UniProt P53779). The settings on record: read-out: residual activity (%) JNK3. The essentials:
as §1

A further data set addresses NEK6 (Homo sapiens, UniProt Q9HC98). The settings on record: read-out: residual activity (%) NEK6. An outline of the steps:
as §1

The next data set deals with PKBb (Homo sapiens, UniProt P31751). As to conditions: read-out: residual activity (%) PKBb. The essentials:
as §1

In another data set the target is Src (Homo sapiens, UniProt P12931). As to conditions: read-out: residual activity (%) Src. An outline of the steps: as §1
Sequence of Src (P12931 whole entry, species assumed): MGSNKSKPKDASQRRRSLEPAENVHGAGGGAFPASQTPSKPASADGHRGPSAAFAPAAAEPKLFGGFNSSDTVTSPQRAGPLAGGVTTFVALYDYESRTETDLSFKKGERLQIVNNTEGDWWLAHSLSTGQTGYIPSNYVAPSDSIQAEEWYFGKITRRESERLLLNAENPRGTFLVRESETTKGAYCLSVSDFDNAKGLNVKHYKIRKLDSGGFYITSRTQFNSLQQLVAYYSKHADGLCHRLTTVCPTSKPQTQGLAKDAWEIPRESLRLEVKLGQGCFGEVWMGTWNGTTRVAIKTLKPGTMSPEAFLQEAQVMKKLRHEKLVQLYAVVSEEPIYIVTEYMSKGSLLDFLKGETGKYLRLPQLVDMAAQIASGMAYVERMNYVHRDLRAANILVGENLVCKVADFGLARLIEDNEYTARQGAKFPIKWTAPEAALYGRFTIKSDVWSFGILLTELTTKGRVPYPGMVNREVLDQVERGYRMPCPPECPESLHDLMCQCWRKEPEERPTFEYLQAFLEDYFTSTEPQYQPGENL
The target of the next data set is CDK2/cyclin A (Homo sapiens, UniProt P24941). The settings on record: inhibitor 1 μM; ATP 20 μM; read-out: residual activity (%) CDK2/cyclin A. The method, then: (§2) The panel of kinases included all 52 kinases available for testing. To the best of our knowledge, the selectivity profiling has not been carried out with a wide panel of PK before for bisubstrate-type inhibitors.
(§3) The assay of protein kinases was performed at 30° C. as described previously [Davies et al., Biochem. J. 351 (2000) 95; Murray et al., Biochem. J. 384 (2004) 477]. The results of the testing are expressed as the % of residual activity of the kinase in the presence of the inhibitor at 1 micromolar concentration.

For another data set, the target named is JNK/SAPK1c (Homo sapiens, UniProt P45983). The settings on record: inhibitor 1 μM; ATP 20 μM; read-out: residual activity (%) JNK/SAPK1c. The method, then:
as §2, §3

The target in a further data set is MAPK2/ERK2 (Homo sapiens, UniProt P28482). The settings on record: inhibitor 1 μM; ATP 50 μM; read-out: residual activity (%) MAPK2/ERK2. On the procedure: as §2, §3
Sequence of MAPK2/ERK2 (P28482 whole entry): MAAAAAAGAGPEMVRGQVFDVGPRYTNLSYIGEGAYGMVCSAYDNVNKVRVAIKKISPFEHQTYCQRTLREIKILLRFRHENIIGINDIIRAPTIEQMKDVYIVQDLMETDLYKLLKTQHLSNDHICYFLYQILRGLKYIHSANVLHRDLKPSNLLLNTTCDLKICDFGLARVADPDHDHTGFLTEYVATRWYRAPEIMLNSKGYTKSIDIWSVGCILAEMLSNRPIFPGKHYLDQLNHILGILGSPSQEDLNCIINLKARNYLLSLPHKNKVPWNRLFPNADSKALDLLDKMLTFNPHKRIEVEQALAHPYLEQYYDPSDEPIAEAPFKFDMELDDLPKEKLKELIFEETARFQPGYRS
Another data set concerns the target SAPK2a/p38 (Homo sapiens, UniProt Q16539). The settings on record: inhibitor 1 μM; ATP 50 μM; read-out: residual activity (%) SAPK2a/p38. On the procedure:
as §2, §3

A further data set deals with SAPK2b/p38β2 (Homo sapiens, UniProt Q15759). The settings on record: inhibitor 1 μM; ATP 20 μM; read-out: residual activity (%) SAPK2b/p38β2. On the procedure:
as §2, §3

For the next data set, the target named is T2, SAPK3/p38g (Homo sapiens, UniProt P53778).
T2 sequence (P53778 1-367): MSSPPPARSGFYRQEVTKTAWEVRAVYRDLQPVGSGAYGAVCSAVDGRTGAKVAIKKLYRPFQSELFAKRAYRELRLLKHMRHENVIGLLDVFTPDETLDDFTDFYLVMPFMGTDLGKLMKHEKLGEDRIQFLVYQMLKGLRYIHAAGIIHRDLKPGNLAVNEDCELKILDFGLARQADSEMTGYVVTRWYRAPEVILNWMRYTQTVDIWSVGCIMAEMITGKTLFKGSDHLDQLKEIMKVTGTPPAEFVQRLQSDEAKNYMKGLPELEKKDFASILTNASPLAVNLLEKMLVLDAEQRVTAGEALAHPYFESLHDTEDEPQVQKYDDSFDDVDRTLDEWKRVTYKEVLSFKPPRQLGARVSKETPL
The settings on record: inhibitor 1 μM; ATP 5 μM; read-out: residual activity (%) SAPK3/p38g. The method, then: as §2, §3

The target in the next data set is T3, SAPK4/p38d (Homo sapiens, UniProt O15264).
T3 sequence (O15264 1-365): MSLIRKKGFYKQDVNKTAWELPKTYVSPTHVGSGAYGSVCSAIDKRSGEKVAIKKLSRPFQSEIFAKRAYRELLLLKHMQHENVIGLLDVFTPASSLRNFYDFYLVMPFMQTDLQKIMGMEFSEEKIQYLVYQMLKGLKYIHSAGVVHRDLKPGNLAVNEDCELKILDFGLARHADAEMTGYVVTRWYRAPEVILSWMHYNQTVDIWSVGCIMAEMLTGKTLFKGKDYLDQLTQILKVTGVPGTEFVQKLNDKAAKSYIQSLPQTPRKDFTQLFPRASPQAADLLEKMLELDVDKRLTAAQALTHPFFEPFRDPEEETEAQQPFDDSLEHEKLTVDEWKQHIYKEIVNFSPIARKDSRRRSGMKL
As to conditions: inhibitor 1 μM; ATP 5 μM; read-out: residual activity (%) SAPK4/p38d. On the procedure:
as §2, §3

In a further data set the target is MSK1 (Homo sapiens, UniProt O75582). The settings on record: inhibitor 1 μM; ATP 20 μM; read-out: residual activity (%) MSK1. An outline of the steps:
as §1

A further data set deals with PKA (Homo sapiens, UniProt P17612). The settings on record: inhibitor 1 μM; ATP 20 μM; read-out: residual activity (%) PKA. An outline of the steps:
as §1

A further data set deals with ROCK-II (Homo sapiens, UniProt O75116). As to conditions: inhibitor 1 μM; ATP 20 μM; read-out: residual activity (%) ROCK-II. The essentials: as §1
Sequence of ROCK-II (O75116 whole entry, species assumed): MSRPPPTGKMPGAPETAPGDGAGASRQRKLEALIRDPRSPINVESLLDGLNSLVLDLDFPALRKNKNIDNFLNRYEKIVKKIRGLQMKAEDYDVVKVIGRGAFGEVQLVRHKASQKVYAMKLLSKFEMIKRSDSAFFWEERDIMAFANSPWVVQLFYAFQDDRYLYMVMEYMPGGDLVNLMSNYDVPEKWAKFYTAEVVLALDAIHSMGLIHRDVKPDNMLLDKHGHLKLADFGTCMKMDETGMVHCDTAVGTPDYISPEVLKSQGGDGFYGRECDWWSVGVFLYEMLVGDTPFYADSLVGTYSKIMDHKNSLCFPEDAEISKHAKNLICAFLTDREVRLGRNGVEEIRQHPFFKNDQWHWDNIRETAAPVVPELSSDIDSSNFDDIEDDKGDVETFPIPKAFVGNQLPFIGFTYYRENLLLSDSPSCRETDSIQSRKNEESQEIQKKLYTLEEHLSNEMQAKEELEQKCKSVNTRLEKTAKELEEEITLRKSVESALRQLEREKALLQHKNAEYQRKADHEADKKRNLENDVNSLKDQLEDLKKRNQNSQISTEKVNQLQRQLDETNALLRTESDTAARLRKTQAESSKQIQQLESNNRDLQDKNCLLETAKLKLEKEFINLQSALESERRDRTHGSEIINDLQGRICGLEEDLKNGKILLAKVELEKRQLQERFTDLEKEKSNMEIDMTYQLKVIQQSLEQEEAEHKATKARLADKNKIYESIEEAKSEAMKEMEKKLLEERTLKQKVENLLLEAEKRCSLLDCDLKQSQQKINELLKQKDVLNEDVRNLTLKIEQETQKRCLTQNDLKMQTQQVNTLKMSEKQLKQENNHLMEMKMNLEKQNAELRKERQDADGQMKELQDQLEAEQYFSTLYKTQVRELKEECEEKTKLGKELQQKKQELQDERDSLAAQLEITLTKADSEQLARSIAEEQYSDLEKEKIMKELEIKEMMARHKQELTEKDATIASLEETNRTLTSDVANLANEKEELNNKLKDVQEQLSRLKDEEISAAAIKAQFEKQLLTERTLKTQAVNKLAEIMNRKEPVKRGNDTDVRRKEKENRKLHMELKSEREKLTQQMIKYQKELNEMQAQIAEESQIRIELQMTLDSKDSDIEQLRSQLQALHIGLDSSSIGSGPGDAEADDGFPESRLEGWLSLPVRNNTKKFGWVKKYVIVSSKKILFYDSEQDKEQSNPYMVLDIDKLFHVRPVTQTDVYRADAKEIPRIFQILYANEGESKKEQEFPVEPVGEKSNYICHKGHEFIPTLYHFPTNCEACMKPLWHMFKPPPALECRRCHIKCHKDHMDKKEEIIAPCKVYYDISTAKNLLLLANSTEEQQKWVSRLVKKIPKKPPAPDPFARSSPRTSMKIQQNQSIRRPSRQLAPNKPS

Where two headings read alike, the source gives them in different places. Some results are limits rather than exact numbers.

Sequence of PKBb (P31751 whole entry): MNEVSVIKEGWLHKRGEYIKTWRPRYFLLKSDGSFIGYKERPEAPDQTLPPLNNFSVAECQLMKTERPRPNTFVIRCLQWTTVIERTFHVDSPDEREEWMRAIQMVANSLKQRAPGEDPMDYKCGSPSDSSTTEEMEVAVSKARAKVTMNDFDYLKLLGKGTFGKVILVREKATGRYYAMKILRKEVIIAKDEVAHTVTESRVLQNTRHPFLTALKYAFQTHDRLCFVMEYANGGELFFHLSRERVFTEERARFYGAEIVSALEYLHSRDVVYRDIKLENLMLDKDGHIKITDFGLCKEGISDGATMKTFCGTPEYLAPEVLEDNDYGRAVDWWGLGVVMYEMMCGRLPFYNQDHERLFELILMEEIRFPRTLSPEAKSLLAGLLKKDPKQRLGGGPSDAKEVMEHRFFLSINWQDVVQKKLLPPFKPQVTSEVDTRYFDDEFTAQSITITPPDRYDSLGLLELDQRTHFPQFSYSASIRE
Sequence of NEK6 (Q9HC98 whole entry, species assumed): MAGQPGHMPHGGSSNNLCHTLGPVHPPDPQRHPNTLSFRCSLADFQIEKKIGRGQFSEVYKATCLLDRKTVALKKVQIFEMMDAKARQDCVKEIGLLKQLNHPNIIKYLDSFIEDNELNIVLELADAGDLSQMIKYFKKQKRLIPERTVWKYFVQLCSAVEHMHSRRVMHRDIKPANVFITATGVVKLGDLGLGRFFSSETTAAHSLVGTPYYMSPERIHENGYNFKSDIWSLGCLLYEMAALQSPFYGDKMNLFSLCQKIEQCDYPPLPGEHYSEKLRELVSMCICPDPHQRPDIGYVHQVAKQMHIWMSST
Sequence of SAPK2a/p38 (Q16539 whole entry): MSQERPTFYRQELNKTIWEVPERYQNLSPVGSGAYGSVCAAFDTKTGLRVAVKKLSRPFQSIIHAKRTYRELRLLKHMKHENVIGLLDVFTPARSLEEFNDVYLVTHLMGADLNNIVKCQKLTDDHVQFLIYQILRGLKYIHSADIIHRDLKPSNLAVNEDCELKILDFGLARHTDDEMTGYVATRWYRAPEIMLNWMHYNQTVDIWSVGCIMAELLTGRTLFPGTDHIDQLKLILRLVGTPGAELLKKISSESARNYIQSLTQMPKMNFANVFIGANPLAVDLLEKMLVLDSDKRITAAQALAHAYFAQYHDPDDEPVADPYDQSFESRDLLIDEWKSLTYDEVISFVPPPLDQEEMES
Sequence of SAPK2b/p38β2 (Q15759 whole entry): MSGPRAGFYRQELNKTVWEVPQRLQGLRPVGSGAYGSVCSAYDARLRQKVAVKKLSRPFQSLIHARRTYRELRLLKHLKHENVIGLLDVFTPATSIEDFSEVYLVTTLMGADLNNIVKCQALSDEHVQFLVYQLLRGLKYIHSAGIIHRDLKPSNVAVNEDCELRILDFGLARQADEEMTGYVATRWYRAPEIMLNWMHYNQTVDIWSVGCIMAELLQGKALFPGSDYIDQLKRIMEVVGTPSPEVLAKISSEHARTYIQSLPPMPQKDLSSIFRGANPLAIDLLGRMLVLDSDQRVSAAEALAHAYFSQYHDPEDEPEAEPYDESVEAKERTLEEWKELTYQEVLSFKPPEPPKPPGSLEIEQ
Sequence of JNK3 (P53779 whole entry, species assumed): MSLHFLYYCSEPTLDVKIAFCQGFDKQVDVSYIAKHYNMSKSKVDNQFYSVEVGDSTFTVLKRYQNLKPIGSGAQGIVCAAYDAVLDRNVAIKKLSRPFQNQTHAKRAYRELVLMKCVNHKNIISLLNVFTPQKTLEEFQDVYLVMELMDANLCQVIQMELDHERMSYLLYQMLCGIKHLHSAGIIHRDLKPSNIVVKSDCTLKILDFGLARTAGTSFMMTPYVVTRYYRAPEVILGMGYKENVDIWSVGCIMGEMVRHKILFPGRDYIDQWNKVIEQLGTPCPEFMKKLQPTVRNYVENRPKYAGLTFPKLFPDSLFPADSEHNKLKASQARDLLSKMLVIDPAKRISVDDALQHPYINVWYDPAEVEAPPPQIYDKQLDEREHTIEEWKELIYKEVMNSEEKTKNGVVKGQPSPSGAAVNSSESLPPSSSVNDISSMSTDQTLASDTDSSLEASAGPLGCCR
Sequence of JNK/SAPK1c (P45983 whole entry): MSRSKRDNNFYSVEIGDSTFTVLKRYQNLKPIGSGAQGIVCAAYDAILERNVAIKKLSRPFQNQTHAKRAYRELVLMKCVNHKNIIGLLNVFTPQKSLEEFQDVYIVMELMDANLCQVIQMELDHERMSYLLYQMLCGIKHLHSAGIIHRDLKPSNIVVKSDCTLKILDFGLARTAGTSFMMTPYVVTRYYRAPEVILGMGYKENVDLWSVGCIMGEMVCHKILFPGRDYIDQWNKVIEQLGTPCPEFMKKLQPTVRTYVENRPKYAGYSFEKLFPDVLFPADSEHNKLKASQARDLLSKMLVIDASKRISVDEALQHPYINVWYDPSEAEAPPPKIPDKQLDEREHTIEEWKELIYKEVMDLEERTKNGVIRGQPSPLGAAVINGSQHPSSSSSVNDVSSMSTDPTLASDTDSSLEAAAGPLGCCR

Turning to `N=C(N)NCCC[C@@H](NC(=O)[C@@H](CCCNC(=N)N)NC(=O)[C@@H](CCCNC(=N)N)NC(=O)[C@@H](CCCNC(=N)N)NC(=O)[C@@H](CCCNC(=N)N)NC(=O)[C@@H](CCCNC(=N)N)NC(=O)CCCCCNC(=O)[C@H]1O[C@@H](n2cnc3c(N)ncnc32)[C@H](O)[C@@H]1O)C(N)=O` [Compound 5, AdcAhx(D-Arg)6-NH2], the remaining activity at 1 µM with ERK8 worked out at 50%; with JNK3, 91%; in the data set with NEK6 it was 94%; with PKBb, 3%; with Src, 84%; with CDK2/cyclin A, 88%. For the same molecule, the remaining activity at 1 µM in the data set with JNK/SAPK1c is 70%; with MAPK2/ERK2 it was 100%; with SAPK2a/p38 it was 79%; with SAPK2b/p38β2, 85%; in the data set with SAPK3/p38g, 111%; with SAPK4/p38d, 107%.
Turning to `N=C(N)NCCC[C@@H](NC(=O)[C@@H](CCCNC(=N)N)NC(=O)[C@@H](CCCNC(=N)N)NC(=O)[C@@H](CCCNC(=N)N)NC(=O)[C@@H](CCCNC(=N)N)NC(=O)[C@@H](CCCNC(=N)N)NC(=O)CCCCCNCCNS(=O)(=O)c1cccc2cnccc12)C(N)=O` [Compound 26, H9-Hex(D-Arg)6-NH2], the remaining activity at 1 µM was 52% with ERK8 (inhibitor 1 μM, ATP 5 μM); 92% in the data set with JNK3 (inhibitor 1 μM, ATP 50 μM); 1% with MSK1; 100% with NEK6 (inhibitor 1 μM, ATP 50 μM); less than 10% with PKA; 3% with PKBb (inhibitor 1 μM, ATP 50 μM). In addition, the remaining activity at 1 µM with ROCK-II came out at 0%; with Src (inhibitor 1 μM, ATP 50 μM), 88%; with CDK2/cyclin A, 73%; with JNK/SAPK1c, 75%; in the data set with MAPK2/ERK2, 95%; with SAPK2a/p38 it was 76%. In addition, the remaining activity at 1 µM with SAPK2b/p38β2 was 80%; with SAPK3/p38g, 99%; in the data set with SAPK4/p38d, 93%.

(Values after US8158376B2, “Bisubstrate fluorescent probe binding to protein kinases” (University of Tartu, priority 2006, dated 2012).)
